According to the supplement of paper PMC9112550, “Optimization of the antimicrobial peptide Bac7 by deep mutational scanning” (BMC Biology, 2022):

Test system: Escherichia coli TOP10
Assay: shrunken log2 fold change of peptide-encoding DNA abundance (4.5 h post-induction vs induction); higher = less antimicrobial activity (less host growth inhibition)
Conditions: time post-induction: 4.5 h; library: site-saturation at positions 5, 18, 19, 20
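Note: peptides expressed intracellularly from a pBAD plasmid library in pooled LB shake-flask culture, induced with 0.3% L-arabinose, DNA abundance read by NGS, three biological replicates, DESeq2 with apeglm shrinkage.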

RRIRPRPPRLPRPRPRPTRIPRP and RRIRPRPPRLPRPRPRPTRYPRP are within 0.2 log units of each other in “shrunken log2 fold change” value: 0.105 for the first, 0.23 for the second.

RRIRPRPPRLPRPRPRPTSEPRP and RRIRPRPPRLPRPRPRPTTAPRP are within 0.2 log units of each other in “shrunken log2 fold change” value: 0.0181 for the first, 0.0804 for the second.

Going from RRIRPRPPRLPRPRPRPTVCPRP to RRIRPRPPRLPRPRPRPTVEPRP, the “shrunken log2 fold change” value falls from 0.149 to -0.104.

First: RRIRPRPPRLPRPRPRPTVLPRP
Second: RRIRPRPPRLPRPRPRPTVSPRP
The “shrunken log2 fold change” value of the first is lower: -0.225 for the first, 0.433 for the second.

RRIRPRPPRLPRPRPRPTVTPRP and RRIRPRPPRLPRPRPRPTVVPRP are within 0.2 log units of each other in “shrunken log2 fold change” value: -0.0401 for the first, 0.0581 for the second.

Going from RRIRPRPPRLPRPRPRPTWDPRP to RRIRPRPPRLPRPRPRPTWMPRP, the “shrunken log2 fold change” value falls from 0.42 to -0.0166.

RRIRPRPPRLPRPRPRPTYDPRP and RRIRPRPPRLPRPRPRPTYIPRP are within 0.2 log units of each other in “shrunken log2 fold change” value: -0.212 for the first, -0.0167 for the second.

RRIRPRPPRLPRPRPRPVALPRP and RRIRPRPPRLPRPRPRPVCCPRP are within 0.2 log units of each other in “shrunken log2 fold change” value: 0.0375 for the first, 0.122 for the second.

Compared with RRIRPRPPRLPRPRPRPVDMPRP, RRIRPRPPRLPRPRPRPVDTPRP is lower in “shrunken log2 fold change” value: 0.0425 for the first, -0.592 for the second.

Compared with RRIRPRPPRLPRPRPRPVEEPRP, RRIRPRPPRLPRPRPRPVEIPRP is lower in “shrunken log2 fold change” value: 0.54 for the first, 0.26 for the second.

RRIRPRPPRLPRPRPRPVENPRP and RRIRPRPPRLPRPRPRPVEQPRP are within 0.2 log units of each other in “shrunken log2 fold change” value: 0.243 for the first, 0.239 for the second.

Going from RRIRPRPPRLPRPRPRPVGDPRP to RRIRPRPPRLPRPRPRPVGHPRP, the “shrunken log2 fold change” value falls from 0.365 to 0.0338.

Compared with RRIRPRPPRLPRPRPRPVGWPRP, RRIRPRPPRLPRPRPRPVHFPRP is lower in “shrunken log2 fold change” value: 0.826 for the first, -0.342 for the second.

RRIRPRPPRLPRPRPRPVHKPRP and RRIRPRPPRLPRPRPRPVHYPRP are within 0.2 log units of each other in “shrunken log2 fold change” value: -0.0637 for the first, -0.121 for the second.

Compared with RRIRPRPPRLPRPRPRPVIFPRP, RRIRPRPPRLPRPRPRPVLGPRP is higher in “shrunken log2 fold change” value: -0.11 for the first, 0.122 for the second.

Going from RRIRPRPPRLPRPRPRPVMEPRP to RRIRPRPPRLPRPRPRPVMFPRP, the “shrunken log2 fold change” value rises from -0.101 to 0.885.

RRIRPRPPRLPRPRPRPVMGPRP and RRIRPRPPRLPRPRPRPVPEPRP are within 0.2 log units of each other in “shrunken log2 fold change” value: 0.149 for the first, 0.0758 for the second.

Compared with RRIRPRPPRLPRPRPRPVPMPRP, RRIRPRPPRLPRPRPRPVPRPRP is higher in “shrunken log2 fold change” value: 0.0911 for the first, 0.531 for the second.

RRIRPRPPRLPRPRPRPVQGPRP and RRIRPRPPRLPRPRPRPVRDPRP are within 0.2 log units of each other in “shrunken log2 fold change” value: -0.0469 for the first, 0.146 for the second.

Going from RRIRPRPPRLPRPRPRPVRVPRP to RRIRPRPPRLPRPRPRPVTEPRP, the “shrunken log2 fold change” value falls from 0.502 to -0.027.

RRIRPRPPRLPRPRPRPVTSPRP and RRIRPRPPRLPRPRPRPVVFPRP are within 0.2 log units of each other in “shrunken log2 fold change” value: 0.0344 for the first, 0.0396 for the second.

RRIRPRPPRLPRPRPRPVWIPRP and RRIRPRPPRLPRPRPRPVWSPRP are within 0.2 log units of each other in “shrunken log2 fold change” value: 0.0152 for the first, 0.0634 for the second.

First: RRIRPRPPRLPRPRPRPWCKPRP
Second: RRIRPRPPRLPRPRPRPWCRPRP
The “shrunken log2 fold change” value of the first is lower: -0.162 for the first, 0.0933 for the second.

RRIRPRPPRLPRPRPRPWDAPRP and RRIRPRPPRLPRPRPRPWDHPRP are within 0.2 log units of each other in “shrunken log2 fold change” value: 0.0508 for the first, -0.106 for the second.

RRIRPRPPRLPRPRPRPWEHPRP and RRIRPRPPRLPRPRPRPWEVPRP are within 0.2 log units of each other in “shrunken log2 fold change” value: -0.0525 for the first, -0.0677 for the second.

First: RRIRPRPPRLPRPRPRPWFNPRP
Second: RRIRPRPPRLPRPRPRPWGFPRP
The “shrunken log2 fold change” value of the first is lower: -0.541 for the first, -0.129 for the second.

RRIRPRPPRLPRPRPRPWGMPRP and RRIRPRPPRLPRPRPRPWHPPRP are within 0.2 log units of each other in “shrunken log2 fold change” value: -0.128 for the first, -0.227 for the second.

Going from RRIRPRPPRLPRPRPRPWHYPRP to RRIRPRPPRLPRPRPRPWIEPRP, the “shrunken log2 fold change” value falls from 0.0497 to -0.162.

RRIRPRPPRLPRPRPRPWIVPRP and RRIRPRPPRLPRPRPRPWKIPRP are within 0.2 log units of each other in “shrunken log2 fold change” value: -0.197 for the first, -0.244 for the second.

Compared with RRIRPRPPRLPRPRPRPWLCPRP, RRIRPRPPRLPRPRPRPWLMPRP is lower in “shrunken log2 fold change” value: 0.106 for the first, -0.118 for the second.

Compared with RRIRPRPPRLPRPRPRPWLSPRP, RRIRPRPPRLPRPRPRPWNLPRP is lower in “shrunken log2 fold change” value: -0.119 for the first, -0.365 for the second.

RRIRPRPPRLPRPRPRPWNTPRP and RRIRPRPPRLPRPRPRPWPKPRP are within 0.2 log units of each other in “shrunken log2 fold change” value: -0.0902 for the first, -0.0311 for the second.

RRIRPRPPRLPRPRPRPWPYPRP and RRIRPRPPRLPRPRPRPWQTPRP are within 0.2 log units of each other in “shrunken log2 fold change” value: 0.0948 for the first, -0.0715 for the second.

RRIRPRPPRLPRPRPRPWRLPRP and RRIRPRPPRLPRPRPRPWRMPRP are within 0.2 log units of each other in “shrunken log2 fold change” value: 0.0836 for the first, 0.217 for the second.

RRIRPRPPRLPRPRPRPWSIPRP and RRIRPRPPRLPRPRPRPWSKPRP are within 0.2 log units of each other in “shrunken log2 fold change” value: -0.0637 for the first, 0.00178 for the second.

RRIRPRPPRLPRPRPRPWSVPRP and RRIRPRPPRLPRPRPRPWTWPRP are within 0.2 log units of each other in “shrunken log2 fold change” value: -0.101 for the first, -0.0128 for the second.

First: RRIRPRPPRLPRPRPRPWWCPRP
Second: RRIRPRPPRLPRPRPRPWWWPRP
The “shrunken log2 fold change” value of the first is lower: -0.258 for the first, -0.00448 for the second.

RRIRPRPPRLPRPRPRPYAEPRP was tested, and the “shrunken log2 fold change” value was -0.377.
